Values of other authors as cited in article PMC3447994.

Target: IgG Fc Fc (Homo sapiens) [IgG part: P01857]

Sequence of FcγRIIIa (P08637 17-254): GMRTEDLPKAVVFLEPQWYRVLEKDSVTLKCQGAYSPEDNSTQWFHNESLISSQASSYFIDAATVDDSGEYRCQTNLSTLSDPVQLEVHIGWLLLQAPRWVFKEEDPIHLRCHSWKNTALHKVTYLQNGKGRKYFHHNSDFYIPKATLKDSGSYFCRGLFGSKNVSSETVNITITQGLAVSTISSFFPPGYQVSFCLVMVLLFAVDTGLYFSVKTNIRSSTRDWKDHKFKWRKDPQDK

Substance: FcγRIIIa (from UniProt P08637)
- Kd: 2000 nM
